According to paper PMC12224988, “The MdHB7L–MdICE1L–MdHOS1 Module Fine‐Tunes Apple Cold Response via CBF‐Dependent and CBF‐Independent Pathways”:

T1: MdHB7L-HIS (UniProt D9ZJ22 1-236)
T1 sequence: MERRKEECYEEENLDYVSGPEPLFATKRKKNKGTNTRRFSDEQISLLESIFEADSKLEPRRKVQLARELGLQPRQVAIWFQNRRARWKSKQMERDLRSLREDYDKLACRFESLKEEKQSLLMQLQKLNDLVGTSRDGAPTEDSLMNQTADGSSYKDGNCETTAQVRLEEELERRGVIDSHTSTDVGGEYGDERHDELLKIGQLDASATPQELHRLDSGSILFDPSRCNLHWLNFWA

B1: pMdCBF1-HB-P1 (dsDNA)
DNA 1: AAAGCATAGAAATAATTCCAAAACTATTTT
DNA 2: AAAATAGTTTTGGAATTATTTCTATGCTTT
B2: pMdPRX52-2-HB (dsDNA)
DNA 1: TATTAAATCAGAATTATTAAGAGAAAATAA
DNA 2: TTATTTTCTCTTAATAATTCTGATTTAATA
B3: pMdCBF3-HB-P1 (dsDNA)
DNA 1: AAAAATAAAATGATTAGCCTGGCGCATCTA
DNA 2: TAGATGCGCCAGGCTAATCATTTTATTTTT
B4: pMdPAP2-1-HB (dsDNA)
DNA 1: GATGTGTGTTGTAATTAGTTACACGATTCT
DNA 2: AGAATCGTGTAACTAATTACAACACACATC
B5: pMdERDL6-7-5-HB (dsDNA)
DNA 1: ATGCAGAATCATTTATCCTTAATTAATCATA
DNA 2: TATGATTAATTAAGGATAAATGATTCTGCAT
B6: pMdERDL6-7-3-HB (dsDNA)
DNA 1: CTTCATATCTTAATCATTCATCATGTATCG
DNA 2: CGATACATGATGAATGATTAAGATATGAAG
B7: pMdPRX52-5-HB (dsDNA)
DNA 1: AATTAAGCTAAATCATTAACAATTTTCATT
DNA 2: AATGAAAATTGTTAATGATTTAGCTTAATT
B8: pMdRD26-3-HB (dsDNA)
DNA 1: ATAGAAATAAATAATTGACGAGATAAATAG
DNA 2: CTATTTATCTCGTCAATTATTTATTTCTAT
B9: pMdCBF1-HB-P2 (dsDNA)
DNA 1: CTATTATTATTAATTACTTTTTTCACATAA
DNA 2: TTATGTGAAAAAAGTAATTAATAATAATAG
B10: pMdERDL6-7-2-HB (dsDNA)
DNA 1: CAATATAATTAATTAAAAATTTTAAACTTTTCAACTAATTATGTTAG
DNA 2: CTAACATAATTAGTTGAAAAGTTTAAAATTTTTAATTAATTATATTG
B11: pMdERD5-4-HB (dsDNA)
DNA 1: TTAAGACTAGCTTAATTGCGAGGATATCAT
DNA 2: ATGATATCCTCGCAATTAAGCTAGTCTTAA
B12: pMdCBF3-HB-P2 (dsDNA)
DNA 1: CACTGTCGATTTAAATCATTCATACAGAAA
DNA 2: TTTCTGTATGAATGATTTAAATCGACAGTG
B13: pMdPRX53-1-HB (dsDNA)
DNA 1: AATAGACCTACTAATTGGCTCACATATGCA
DNA 2: TGCATATGTGAGCCAATTAGTAGGTCTATT
B14: pMdPAP2-2-HB (dsDNA)
DNA 1: GCACCAAGTCCAATTATTGAGCAATTAATG
DNA 2: CATTAATTGCTCAATAATTGGACTTGGTGC
B15: pMdERD5-3-HB (dsDNA)
DNA 1: ATTGTTTGTATTTAATTGTAAATAAAAATA
DNA 2: TATTTTTATTTACAATTAAATACAAACAAT
B16: pMdCBF1-HB-P4 (dsDNA)
DNA 1: GAAATTAAGTACTAATTGTTCAGTACCAAG
DNA 2: CTTGGTACTGAACAATTAGTACTTAATTTC
B17: pMdRD26-2-HB (dsDNA)
DNA 1: TCATTAAAGAGATAATTATGAAATAAAATA
DNA 2: TATTTTATTTCATAATTATCTCTTTAATGA
B18: pMdCBF1-HB-P3 (dsDNA)
DNA 1: TAGCAACTAATTAAGTCTTCAATAATTTCTAAAAGCA
DNA 2: TGCTTTTAGAAATTATTGAAGACTTAATTAGTTGCTA
B19: pMdERDL6-7-1-HB (dsDNA)
DNA 1: GCATTTTATAATTGTTTATTATTTTTAATTAGAAAAAATC
DNA 2: GATTTTTTCTAATTAAAAATAATAAACAATTATAAAATGC
B20: pMdRD26-4-HB (dsDNA)
DNA 1: ATAAATATAATTACCTGTGAGTTGATTATA
DNA 2: TATAATCAACTCACAGGTAATTATATTTAT
B21: pMdERDL6-7-4-HB (dsDNA)
DNA 1: CTTAAAATTTCTTAATTATCAGTTAACACC
DNA 2: GGTGTTAACTGATAATTAAGAAATTTTAAG
B22: pMdPRX52-1-HB (dsDNA)
DNA 1: GTTAAACCAATTTAATTAATAAGATCTTAT
DNA 2: ATAAGATCTTATTAATTAAATTGGTTTAAC
B23: pMdPRX52-4-HB (dsDNA)
DNA 1: CTTGTCCGTAAATGATTGACATTGGTTTAC
DNA 2: GTAAACCAATGTCAATCATTTACGGACAAG
B24: pMdPRX53-2-HB (dsDNA)
DNA 1: AATACGCCTCTAATTATTAGGTGCTTTTTG
DNA 2: CAAAAAGCACCTAATAATTAGAGGCGTATT
B25: pMdERD5-1-HB (dsDNA)
DNA 1: GAACTGCCTATATAATTAACAAGCTTCAGG
DNA 2: CCTGAAGCTTGTTAATTATATAGGCAGTTC
B26: pMdPRX52-3-HB (dsDNA)
DNA 1: CAAATGTAATTAGCATTAATCCCAACTAACTATAAAAATGATTATCCTTG
DNA 2: CAAGGATAATCATTTTTATAGTTAGTTGGGATTAATGCTAATTACATTTG
B27: pMdERDL6-1-1-HB (dsDNA)
DNA 1: TTAGGATAGTAATTGGTAACTCTCGACTCC
DNA 2: GGAGTCGAGAGTTACCAATTACTATCCTAA
B28: pMdPRX53-3-HB (dsDNA)
DNA 1: TAAGTCTTTGTGTAATTAACAAAACAACGA
DNA 2: TCGTTGTTTTGTTAATTACACAAAGACTTA
B29: pMdERD5-2-HB (dsDNA)
DNA 1: TCTTTTTAGACCCTAATTATAGGGAAAGGG
DNA 2: CCCTTTCCCTATAATTAGGGTCTAAAAAGA
B30: pMdRD26-1-HB (dsDNA)
DNA 1: ATGCGACCATTAATTAAACTTACAAAATGT
DNA 2: ACATTTTGTAAGTTTAATTAATGGTCGCAT

Molecular target: T1, MdHB7L-HIS
Experiment: EMSA; Beyotime Chemiluminescent EMSA Kit per manufacturer; buffer, salt, pH and temperature not given
Conditions: protein: recombinant; tags: His (pET28a; BamHI/SalI site primers, no stop codon in reverse primer); chain copies: 2; label: biotin; blunt

| Binder | binding result |
| --- | --- |
| B1 | binds |
| B2 | binds |
| B3 | binds |
| B4 | no binding |
| B5 | binds |
| B6 | binds |
| B7 | binds |
| B8 | binds |
| B9 | binds |
| B10 | binds |
| B11 | binds |
| B12 | binds |
| B13 | binds |
| B14 | binds |
| B15 | binds |
| B16 | binds |
| B17 | binds |
| B18 | binds |
| B19 | binds |
| B20 | no binding |
| B21 | binds |
| B22 | binds |
| B23 | binds |
| B24 | binds |
| B25 | binds |
| B26 | binds |
| B27 | binds |
| B28 | no binding |
| B29 | binds |
| B30 | binds |
